Changes are numbered by the printed parent chain. In names and notes the source's numbering stands. Read-outs that look alike come from different tables or passages of the source.
T1: NKp46 mutant 19 (human, UniProt O76036 22-304)
T1 construct: Expressed in transfected HEK293T cells
T1 chain: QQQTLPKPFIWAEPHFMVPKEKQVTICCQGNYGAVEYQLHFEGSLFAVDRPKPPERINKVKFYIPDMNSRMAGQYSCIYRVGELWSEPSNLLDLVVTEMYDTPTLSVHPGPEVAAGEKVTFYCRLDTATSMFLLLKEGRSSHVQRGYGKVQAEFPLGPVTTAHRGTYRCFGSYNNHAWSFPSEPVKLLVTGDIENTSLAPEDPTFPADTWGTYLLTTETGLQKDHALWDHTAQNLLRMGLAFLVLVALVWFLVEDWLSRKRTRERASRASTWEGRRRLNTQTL

T2: NKp46 mutant 2 (human, UniProt O76036 22-304)
T2 construct: Expressed in transfected HEK293T cells
T2 chain: T1 chain with K20S, E21A, E98A, A114I, A115S

T3: NKp46 mutant Supp7 (human, UniProt O76036 22-304)
T3 construct: Expressed in transfected HEK293T cells; also called supplementary mutant Supp7
T3 chain: T1 chain with Y100A, A114I, A115S, Y173A

T4: NKp46 mutant Supp8 (human, UniProt O76036 22-304)
T4 construct: Expressed in transfected HEK293T cells; also called supplementary mutant Supp8
T4 chain: T1 chain with P111A, E112A, A114I, A115S

T5: NKp46 mutant 6 (human, UniProt O76036 22-304)
T5 construct: Expressed in transfected HEK293T cells
T5 chain: T1 chain with R80A, V81A, A114I, A115S

B1: CD19-F5-NKp46-3 (bispecific antibody, human IgG1, kappa)
chain 1: not shown
chain 2: not shown
chain 3: DIVMTQSPATLSVTPGDRVSLSCRASQSISDYLHWYQQKSHESPRLLIKYASQSISGIPSRFSGSGSGSDFTLSINSVEPEDVGVYYCQNGHSFPLTFGAGTKLELKASTKGPSVFPLAPSSKSTSGGTAALGCLVKDYFPEPVTVSWNSGALTSGVHTFPAVLQSSGLYSLSSVVTVPSSSLGTQTYICNVNHKPSNTKVDKRVEPKSCDKTH
notes: Heterotrimer with dimeric Fc: first (170), second (169) and third (171) chain
B2: CD19-F11-NKp46-3 (bispecific antibody)
chain 1: DIQLTQSPASLAVSLGQRATISCKASQSVDYDGDSYLNWYQQIPGQPPKLLIYDASNLVSGIPPRFSGSGSGTDFTLNIHPVEKVDAATYHCQQSTEDPWTFGGGTKLEIKGGGGSGGGGSGGGGSQVQLQQSGAELVRPGSSVKISCKASGYAFSSYWMNWVKQRPGQGLEWIGQIWPGDGDTNYNGKFKGKATLTADESSSTAYMQLSSLASEDSAVYFCARRETTTVGRYYYAMDYWGQGTTVTVSSGGGSSAPELLGGPSVFLFPPKPKDTLMISRTPEVTCVVVDVSHEDPEVKFNWYVDGVEVHNAKTKPREEQYSSTYRVVSVLTVLHQDWLNGKEYKCKVSNKALPAPIEKTISKAKGQPREPQVYTLPPSREEMTKNQVSLTCLVKGFYPSDIAVEWESNGQPENNYKTTPPVLDSDGSFFLYSKLTVDKSRWQQGNVFSCSVMHEALHNHYTQKSLSLSPGGGGGSGGGGSGGGGSGQPREPQVYTLPPSREEMTKNQVSLTCLVKGFYPSDIAVEWESNGQPENNYKTTPPVLDSDGSFFLYSKLTVDKSRWQQGNVFSCSVMHEALHNHYTQKSLSLSPGSTGSEVQLQQSGPELVKPGASVKISCKTSGYTFTEYTMHWVKQSHGKSLEWIGGISPNIGGTSYNQKFKGKATLTVDKSSSTAYMELRSLTSEDSAVYYCARRGGSFDYWGQGTTLTVSSRTVAAPSVFIFPPSDEQLKSGTASVVCLLNNFYPREAKVQWKVDNALQSGNSQESVTEQDSKDSTYSLSSTLTLSKADYEKHKVYACEVTHQGLSSPVTKSFNRGEC
chain 2: B1 chain 3
notes: Heterodimer; also called CD19-F11A-NKp46-3
B3: CD19-F6-NKp46-3 (bispecific antibody, human IgG1, kappa)
chain 1: not shown
chain 2: not shown
chain 3: B1 chain 3
notes: As F5 but with N297S: first (173), second (172) and third (174) chain
B4: NKp46-4 (antibody, V domains shown)
VH: QVQLQQSAVELARPGASVKMSCKASGYTFTSFTMHWVKQRPGQGLEWIGYINPSSGYTEYNQKFKDKTTLTADKSSSTAYMQLDSLTSDDSAVYYCVRGSSRGFDYWGQGTLVTVSA
VL: DIQMIQSPASLSVSVGETVTITCRASENIYSNLAWFQQKQGKSPQLLVYAATNLADGVPSRFSGSGSGTQYSLKINSLQSEDFGIYYCQHFWGTPRTFGGGTKLEIK
notes: also called Antibody NKp46-4
B5: NKp46-2 (antibody, human IgG1, V domains shown)
VH: EVQLQESGPGLVKPSQSLSLTCTVTGYSITSDYAWNWIRQFPGNKLEWMGYITYSGSTSYNPSLESRISITRDTSTNQFFLQLNSVTTEDTATYYCARGGYYGSSWGVFAYWGQGTLVTVSA
VL: DIQMTQSPASLSASVGETVTITCRVSENIYSYLAWYQQKQGKSPQLLVYNAKTLAEGVPSRFSGSGSGTQFSLKINSLQPEDFGSYYCQHHYGTPWTFGGGTKLEIK
notes: also called parental human IgG1 chimeric antibody NKp46-2
B6: NKp46-3 IgG1 (antibody, V domains shown)
VH: EVQLQQSGPELVKPGASVKISCKTSGYTFTEYTMHWVKQSHGKSLEWIGGISPNIGGTSYNQKFKGKATLTVDKSSSTAYMELRSLTSEDSAVYYCARRGGSFDYWGQGTTLTVSS
VL: DIVMTQSPATLSVTPGDRVSLSCRASQSISDYLHWYQQKSHESPRLLIKYASQSISGIPSRFSGSGSGSDFTLSINSVEPEDVGVYYCQNGHSFPLTFGAGTKLELK
notes: Chimeric full-length human IgG1; also called NKp46-3 antibody as a full-length human IgG1

Tests used:
human FcRn (Example 10) [1] = target: T6, human FcRn (Example 10) (human, UniProt P55899 24-297; P61769 21-119, limits assumed); assay: SPR, FcRn immobilized on CM5, SCK/Two state reaction
T6 construct: Construct not described; Beta-2-microglobulin is not mentioned; also called recombinant FcRn proteins
T6 sequence (P55899 24-297 limits assumed, form in doubt, chain 1 of 2): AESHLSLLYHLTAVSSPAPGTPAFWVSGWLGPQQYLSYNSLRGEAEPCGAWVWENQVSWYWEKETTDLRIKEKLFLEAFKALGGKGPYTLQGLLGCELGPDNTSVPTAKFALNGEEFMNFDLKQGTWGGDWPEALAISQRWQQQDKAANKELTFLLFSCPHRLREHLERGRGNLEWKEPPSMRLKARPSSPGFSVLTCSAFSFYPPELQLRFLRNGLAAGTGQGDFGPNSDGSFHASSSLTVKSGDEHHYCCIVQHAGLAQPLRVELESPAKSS
T6 sequence (P61769 21-119 limits assumed, form in doubt, chain 2 of 2): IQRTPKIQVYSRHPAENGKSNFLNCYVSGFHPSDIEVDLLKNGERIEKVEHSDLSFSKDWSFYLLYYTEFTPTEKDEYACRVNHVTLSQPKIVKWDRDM
Experimental: SPR measurements were performed on a Biacore T100 apparatus (Biacore GE Healthcare) at 25° C. In all Biacore experiments Acetate Buffer (50 mM Acetate pH5.6, 150 mM NaCl, 0.1% surfactant p20) and HBS-EP+ (Biacore GE Healthcare) served as running buffer and regeneration buffer respectively. Sensorgrams were analyzed with Biacore T100 Evaluation software. Recombinant mouse FcRn was purchase from R&D Systems.
(§1) Recombinant FcRn proteins were immobilized covalently to carboxyl groups in the dextran layer on a Sensor Chip CM5. The chip surface was activated with EDC/NHS (N-ethyl-N′-(3-dimethylaminopropyl) carbodiimidehydrochloride and N-hydroxysuccinimide (Biacore GE Healthcare)). FcRn proteins were diluted to 10 μg/ml in coupling buffer (10 mM acetate, pH 5.6) and injected until the appropriate immobilization level was reached (i.e. 2500 RU). Deactivation of the remaining activated groups was performed using 100 mM ethanolamine pH 8 (Biacore GE Healthcare).

[2] = target: T7, Human NKp46 recombinant proteins (human, UniProt O76036 22-258); assay: SPR, bispecific captured on Protein-A chip, human NKp46 injected, 1:1 kinetic model
T7 construct: also called recombinant human NKp46 proteins
Experimental: SPR measurements were performed on a Biacore T100 apparatus (Biacore GE Healthcare) at 25° C. In all Biacore experiments HBS-EP+(Biacore GE Healthcare) and NaOH 10 mM served as running buffer and regeneration buffer respectively. Sensorgrams were analyzed with Biacore T100 Evaluation software. Protein-A was purchase from (GE Healthcare). Human NKp46 recombinant proteins were cloned, produced and purified at Innate Pharma.
as §1, with “Protein-A” for “Recombinant FcRn”, “Protein-A was” for “FcRn proteins were”, “2000” for “2500”
Monovalent affinity study was done following a regular Capture-Kinetic protocol recommended by the manufacturer (Biacore GE Healthcare kinetic wizard). Seven serial dilutions of human NKp46 recombinant proteins, ranging from 6.25 to 400 nM were sequentially injected over the captured Bi-Specific antibodies and allowed to dissociate for 10 min before regeneration. The entire sensorgram sets were fitted using the 1:1 kinetic binding model.

human FcRn (Example 10) [3] = target: T6, human FcRn (Example 10); assay: SPR, FcRn immobilized on CM5, Steady State
[4] = target: T8, human NKp46 expressed at the cell surface (human, UniProt O76036 22-304); assay: flow cytometry on HEK293T cells transfected with wild-type NKp46, antibody titrated 0.001-1 ug/ml
T8 construct: Wild-type NKp46 on cells (transfected cell lines or NK cells); also called cell line expressing the human NKp46 construct; NKp46 cell line

NKp46 mutant 19 = target: T1, NKp46 mutant 19; assay: flow cytometry on HEK293T cells transfected with NKp46 mutant 19 (I135A, S136A), antibody titrated 0.001-1 ug/ml
[5] = target: T8, human NKp46 expressed at the cell …; assay: flow cytometry on HEK293T cells transfected with wild-type NKp46, antibody titrated 0.001-1 ug/ml; remark: listed apart in the source
NKp46 mutant 2 = target: T2, NKp46 mutant 2; assay: flow cytometry on HEK293T cells transfected with NKp46 mutant 2 (K41S, E42A, E119A), antibody titrated 0.001-1 ug/ml
Experimental: All the anti-NKp46 antibodies were tested for their binding to each mutant by flow cytometry. A first experiment was performed to determine antibodies that lose their binding to one or several mutants at one concentration (10 μg/ml).

NKp46 mutant Supp7 = target: T3, NKp46 mutant Supp7; assay: flow cytometry on HEK293T cells transfected with NKp46 mutant Supp7 (Y121A, Y194A; printed 'Mutant S7'), antibody titrated 0.001-1 ug/ml
NKp46 mutant Supp8 = target: T4, NKp46 mutant Supp8; assay: flow cytometry on HEK293T cells transfected with NKp46 mutant Supp8 (P132A, E133A; printed 'Mutant S8'), antibody titrated 0.001-1 ug/ml
[6] = target: T7, Human NKp46 recombinant proteins; assay: SPR, antibody captured on Protein-A chip, human NKp46 injected, 1:1 kinetic model
NKp46 mutant 6 = target: T5, NKp46 mutant 6; assay: flow cytometry on HEK293T cells transfected with NKp46 mutant 6 (R101A, V102A), antibody titrated 0.001-1 ug/ml

Binder | Kd (human FcRn (Example 10) [1]) [nM] | Kd [2] [nM] | koff [2] [s⁻¹] | kon [2] [M⁻¹ s⁻¹] | binding result (NKp46 mutant 19) | binding result (NKp46 mutant 2) | binding result (NKp46 mutant Supp7) | other results
B1 | 2.6 | 67 | 0.0051 | 75600 | – | – | – | –
B2 | – | 30 | 0.0104 | 339000 | – | – | – | Kd (human FcRn (Example 10) [3]): 596 nM
B3 | 6 | 63 | 0.00503 | 79300 | – | – | – | –
B4 | – | – | – | – | binds | – | – | binding result [4]: binds
B5 | – | – | – | – | binds | binds | binds | binding result [5]: binds; binding result (NKp46 mutant Supp8): binds
B6 | – | – | – | – | – | binds | binds | Kd [6]: 20 nM; koff [6]: 0.00433 s⁻¹; kon [6]: 222000 M⁻¹ s⁻¹; binding result (NKp46 mutant 6): binds

Reference: patent US20240141042A1 (INNATE PHARMA, published 2024)
